Data as given in publication PMC10786891, “Massively parallel profiling of RNA-targeting CRISPR-Cas13d”.

B1: target 1 MT 5'PFS GCA 3'PFS ACC (mixed)
RNA 1: CACCCGUGCAAAAAUGCAGGGGUCUAAAACUGAGCGGAUAACCUCUCUAUGG
RNA 2: GGGAAUGGAUCCACAUCUACGAAUUCGCACCAUAGAGAGGUUAUCCGCUCAACCAGAUCGGAAGAGCACACGU
B2: target 1 MT 5'PFS ACC 3'PFS UGU (mixed)
RNA 1: CACCCGUGCAAAAAUGCAGGGGUCUAAAACUGAGCGGAUAACCUCUCUAUGG
RNA 2: GGGAAUGGAUCCACAUCUACGAAUUCACCCCAUAGAGAGGUUAUCCGCUCAUGUAGAUCGGAAGAGCACACGU
B3: target 1 C4A,A9U (mixed)
RNA 1: CACCCGUGCAAAAAUGCAGGGGUCUAAAACUGAGCGGAUAACCUCUCUAUGG
RNA 2: GGGAAUGGAUCCACAUCUACGAAUUCGUACCAUAGAGAGGUUUUCCGAUCACCGAGAUCGGAAGAGCACACGU
B4: target 1 MT 5'PFS AUG 3'PFS UGA (mixed)
RNA 1: CACCCGUGCAAAAAUGCAGGGGUCUAAAACUGAGCGGAUAACCUCUCUAUGG
RNA 2: GGGAAUGGAUCCACAUCUACGAAUUCAUGCCAUAGAGAGGUUAUCCGCUCAUGAAGAUCGGAAGAGCACACGU
B5: target 1 MT 5'PFS CUG 3'PFS CCG (mixed)
RNA 1: CACCCGUGCAAAAAUGCAGGGGUCUAAAACUGAGCGGAUAACCUCUCUAUGG
RNA 2: GGGAAUGGAUCCACAUCUACGAAUUCCUGCCAUAGAGAGGUUAUCCGCUCACCGAGAUCGGAAGAGCACACGU
B6: target 1 MT 5'PFS CAG 3'PFS UUG (mixed)
RNA 1: CACCCGUGCAAAAAUGCAGGGGUCUAAAACUGAGCGGAUAACCUCUCUAUGG
RNA 2: GGGAAUGGAUCCACAUCUACGAAUUCCAGCCAUAGAGAGGUUAUCCGCUCAUUGAGAUCGGAAGAGCACACGU
B7: target 1 MT 5'PFS UGA 3'PFS ACG (mixed)
RNA 1: CACCCGUGCAAAAAUGCAGGGGUCUAAAACUGAGCGGAUAACCUCUCUAUGG
RNA 2: GGGAAUGGAUCCACAUCUACGAAUUCUGACCAUAGAGAGGUUAUCCGCUCAACGAGAUCGGAAGAGCACACGU
B8: target 1 MT 5'PFS CGC 3'PFS CCG (mixed)
RNA 1: CACCCGUGCAAAAAUGCAGGGGUCUAAAACUGAGCGGAUAACCUCUCUAUGG
RNA 2: GGGAAUGGAUCCACAUCUACGAAUUCCGCCCAUAGAGAGGUUAUCCGCUCACCGAGAUCGGAAGAGCACACGU
B9: target 1 MT 5'PFS GGC 3'PFS ACG (mixed)
RNA 1: CACCCGUGCAAAAAUGCAGGGGUCUAAAACUGAGCGGAUAACCUCUCUAUGG
RNA 2: GGGAAUGGAUCCACAUCUACGAAUUCGGCCCAUAGAGAGGUUAUCCGCUCAACGAGAUCGGAAGAGCACACGU
B10: target 1 MT 5'PFS GGC 3'PFS ACA (mixed)
RNA 1: CACCCGUGCAAAAAUGCAGGGGUCUAAAACUGAGCGGAUAACCUCUCUAUGG
RNA 2: GGGAAUGGAUCCACAUCUACGAAUUCGGCCCAUAGAGAGGUUAUCCGCUCAACAAGAUCGGAAGAGCACACGU
B11: target 1 MT 5'PFS GCA 3'PFS CGC (mixed)
RNA 1: CACCCGUGCAAAAAUGCAGGGGUCUAAAACUGAGCGGAUAACCUCUCUAUGG
RNA 2: GGGAAUGGAUCCACAUCUACGAAUUCGCACCAUAGAGAGGUUAUCCGCUCACGCAGAUCGGAAGAGCACACGU
B12: target 1 MT 5'PFS GCA 3'PFS CGU (mixed)
RNA 1: CACCCGUGCAAAAAUGCAGGGGUCUAAAACUGAGCGGAUAACCUCUCUAUGG
RNA 2: GGGAAUGGAUCCACAUCUACGAAUUCGCACCAUAGAGAGGUUAUCCGCUCACGUAGAUCGGAAGAGCACACGU
B13: target 1 MT 5'PFS CCU 3'PFS AAC (mixed)
RNA 1: CACCCGUGCAAAAAUGCAGGGGUCUAAAACUGAGCGGAUAACCUCUCUAUGG
RNA 2: GGGAAUGGAUCCACAUCUACGAAUUCCCUCCAUAGAGAGGUUAUCCGCUCAAACAGAUCGGAAGAGCACACGU
B14: target 1 insC 3' of 20,insC 3' of 18 (mixed)
RNA 1: CACCCGUGCAAAAAUGCAGGGGUCUAAAACUGAGCGGAUAACCUCUCUAUGG
RNA 2: GGGAAUGGAUCCACAUCUACGAAUUCGUACCACUACGAGAGGUUAUCCGCUCACCGAGAUCGGAAGAGCACACGU
B15: target 1 MT 5'PFS CCU 3'PFS AAA (mixed)
RNA 1: CACCCGUGCAAAAAUGCAGGGGUCUAAAACUGAGCGGAUAACCUCUCUAUGG
RNA 2: GGGAAUGGAUCCACAUCUACGAAUUCCCUCCAUAGAGAGGUUAUCCGCUCAAAAAGAUCGGAAGAGCACACGU
B16: target 1 MT 5'PFS ACG 3'PFS CUA (mixed)
RNA 1: CACCCGUGCAAAAAUGCAGGGGUCUAAAACUGAGCGGAUAACCUCUCUAUGG
RNA 2: GGGAAUGGAUCCACAUCUACGAAUUCACGCCAUAGAGAGGUUAUCCGCUCACUAAGAUCGGAAGAGCACACGU
B17: target 1 MT 5'PFS AAG 3'PFS AGG (mixed)
RNA 1: CACCCGUGCAAAAAUGCAGGGGUCUAAAACUGAGCGGAUAACCUCUCUAUGG
RNA 2: GGGAAUGGAUCCACAUCUACGAAUUCAAGCCAUAGAGAGGUUAUCCGCUCAAGGAGAUCGGAAGAGCACACGU
B18: target 1 MT 5'PFS AAG 3'PFS AGA (mixed)
RNA 1: CACCCGUGCAAAAAUGCAGGGGUCUAAAACUGAGCGGAUAACCUCUCUAUGG
RNA 2: GGGAAUGGAUCCACAUCUACGAAUUCAAGCCAUAGAGAGGUUAUCCGCUCAAGAAGAUCGGAAGAGCACACGU
B19: target 1 MT 5'PFS ACG 3'PFS CUG (mixed)
RNA 1: CACCCGUGCAAAAAUGCAGGGGUCUAAAACUGAGCGGAUAACCUCUCUAUGG
RNA 2: GGGAAUGGAUCCACAUCUACGAAUUCACGCCAUAGAGAGGUUAUCCGCUCACUGAGAUCGGAAGAGCACACGU
B20: target 1 MT 5'PFS UCA 3'PFS UUG (mixed)
RNA 1: CACCCGUGCAAAAAUGCAGGGGUCUAAAACUGAGCGGAUAACCUCUCUAUGG
RNA 2: GGGAAUGGAUCCACAUCUACGAAUUCUCACCAUAGAGAGGUUAUCCGCUCAUUGAGAUCGGAAGAGCACACGU
B21: target 1 MT 5'PFS UCA 3'PFS UUA (mixed)
RNA 1: CACCCGUGCAAAAAUGCAGGGGUCUAAAACUGAGCGGAUAACCUCUCUAUGG
RNA 2: GGGAAUGGAUCCACAUCUACGAAUUCUCACCAUAGAGAGGUUAUCCGCUCAUUAAGAUCGGAAGAGCACACGU
B22: target 1 MT 5'PFS GAA 3'PFS UGU (mixed)
RNA 1: CACCCGUGCAAAAAUGCAGGGGUCUAAAACUGAGCGGAUAACCUCUCUAUGG
RNA 2: GGGAAUGGAUCCACAUCUACGAAUUCGAACCAUAGAGAGGUUAUCCGCUCAUGUAGAUCGGAAGAGCACACGU
B23: target 1 MT 5'PFS GAA 3'PFS UGA (mixed)
RNA 1: CACCCGUGCAAAAAUGCAGGGGUCUAAAACUGAGCGGAUAACCUCUCUAUGG
RNA 2: GGGAAUGGAUCCACAUCUACGAAUUCGAACCAUAGAGAGGUUAUCCGCUCAUGAAGAUCGGAAGAGCACACGU
B24: target 1 MT 5'PFS GAA 3'PFS UGC (mixed)
RNA 1: CACCCGUGCAAAAAUGCAGGGGUCUAAAACUGAGCGGAUAACCUCUCUAUGG
RNA 2: GGGAAUGGAUCCACAUCUACGAAUUCGAACCAUAGAGAGGUUAUCCGCUCAUGCAGAUCGGAAGAGCACACGU
B25: target 1 C21U,C22A (mixed)
RNA 1: CACCCGUGCAAAAAUGCAGGGGUCUAAAACUGAGCGGAUAACCUCUCUAUGG
RNA 2: GGGAAUGGAUCCACAUCUACGAAUUCGUAAUAUAGAGAGGUUAUCCGCUCACCGAGAUCGGAAGAGCACACGU
B26: target 1 MT 5'PFS GGA 3'PFS GGU (mixed)
RNA 1: CACCCGUGCAAAAAUGCAGGGGUCUAAAACUGAGCGGAUAACCUCUCUAUGG
RNA 2: GGGAAUGGAUCCACAUCUACGAAUUCGGACCAUAGAGAGGUUAUCCGCUCAGGUAGAUCGGAAGAGCACACGU
B27: target 1 MT 5'PFS GUG 3'PFS CUA (mixed)
RNA 1: CACCCGUGCAAAAAUGCAGGGGUCUAAAACUGAGCGGAUAACCUCUCUAUGG
RNA 2: GGGAAUGGAUCCACAUCUACGAAUUCGUGCCAUAGAGAGGUUAUCCGCUCACUAAGAUCGGAAGAGCACACGU
B28: target 1 MT 5'PFS GUG 3'PFS CUC (mixed)
RNA 1: CACCCGUGCAAAAAUGCAGGGGUCUAAAACUGAGCGGAUAACCUCUCUAUGG
RNA 2: GGGAAUGGAUCCACAUCUACGAAUUCGUGCCAUAGAGAGGUUAUCCGCUCACUCAGAUCGGAAGAGCACACGU

Molecular target: T1, EsCas13d, nuclease-dead (Eubacterium siraeum, UniProt B0MS50, R295A;H300A;R849A;H854A)
T1 sequence: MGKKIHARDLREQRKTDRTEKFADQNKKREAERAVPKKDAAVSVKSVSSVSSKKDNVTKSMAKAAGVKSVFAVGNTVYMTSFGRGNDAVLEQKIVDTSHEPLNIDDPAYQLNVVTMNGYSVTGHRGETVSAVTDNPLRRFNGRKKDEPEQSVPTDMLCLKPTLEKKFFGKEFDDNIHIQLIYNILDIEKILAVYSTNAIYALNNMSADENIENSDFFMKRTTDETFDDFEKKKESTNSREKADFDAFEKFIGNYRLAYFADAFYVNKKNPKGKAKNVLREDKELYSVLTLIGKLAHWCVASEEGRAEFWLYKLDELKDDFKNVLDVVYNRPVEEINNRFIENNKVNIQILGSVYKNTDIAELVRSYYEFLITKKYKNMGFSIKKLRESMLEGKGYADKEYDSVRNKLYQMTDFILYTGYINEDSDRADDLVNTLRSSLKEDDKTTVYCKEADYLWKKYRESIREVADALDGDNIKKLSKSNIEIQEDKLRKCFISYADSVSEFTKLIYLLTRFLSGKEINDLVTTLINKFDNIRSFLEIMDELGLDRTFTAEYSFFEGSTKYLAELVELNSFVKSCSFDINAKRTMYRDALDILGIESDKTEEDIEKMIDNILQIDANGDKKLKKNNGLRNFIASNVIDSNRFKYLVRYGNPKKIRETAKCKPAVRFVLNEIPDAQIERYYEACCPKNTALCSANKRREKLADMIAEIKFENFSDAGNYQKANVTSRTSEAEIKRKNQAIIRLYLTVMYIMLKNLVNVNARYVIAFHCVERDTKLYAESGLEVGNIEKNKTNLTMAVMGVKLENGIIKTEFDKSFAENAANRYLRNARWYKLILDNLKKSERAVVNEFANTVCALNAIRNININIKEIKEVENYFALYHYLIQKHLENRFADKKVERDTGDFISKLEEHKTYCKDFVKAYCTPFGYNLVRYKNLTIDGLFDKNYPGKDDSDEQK
Test: crRNA (strand 1, pre-loaded); Mg2+; 40 mM Tris-HCl pH 7.5, 150 mM NaCl, 6 mM MgCl2, 1 mM DTT, 0.1% Tween-20, 0.2 mg/ml BSA; 25 C; 10 min per concentration, then washed
Conditions: tags: His6-TwinStrep-SUMO cleaved; N-terminal SNAP kept (SNAP-Surface 488); label: 3' end held by stalled T7 RNA polymerase

Which Kd does the source give for B1 here?
The Kd was about 32 nM.

For B2, which Kd is on record?
Its Kd is about 19 nM.

How did the Kd turn out when B3 was run?
Its Kd is 4.45 ± 0.25 nM.

Which Kd does the source give for B4 here?
The Kd was 52 ± 19.5 nM.

How did the Kd turn out when B5 was run?
Its Kd is 3.05 ± 0.55 nM.

For B6, which Kd is on record?
Its Kd is 19.7 ± 3.55 nM.

B7 was tested. Which Kd did it give?
Its Kd is 110 ± 50 nM.

B8 was tested. Which Kd did it give?
Its Kd is 19 ± 7 nM.

Which Kd does the source give for B9 here?
The Kd was 13.5 ± 2.85 nM.

For B10, which Kd is on record?
Its Kd is 20 ± 10 nM.

For B11, which Kd is on record?
The Kd was 71 ± 27 nM.

How did the Kd turn out when B12 was run?
Its Kd is 11.4 ± 2.2 nM.

B13 was tested. Which Kd did it give?
The Kd was 18 ± 4.5 nM.

Which Kd does the source give for B14 here?
The Kd was 6.1 ± 0.5 nM.

B15 was tested. Which Kd did it give?
Its Kd is 59.5 ± 20 nM.

How did the Kd turn out when B16 was run?
The Kd was about 32 nM.

How did the Kd turn out when B17 was run?
The Kd was 60.5 ± 22.5 nM.

Which Kd does the source give for B18 here?
Its Kd is 38 ± 14 nM.

With B19 as the binder, how does the Kd read?
Its Kd is 53.5 ± 23 nM.

B20 was tested. Which Kd did it give?
Its Kd is 37 ± 9.5 nM.

B21 was tested. Which Kd did it give?
Its Kd is 10.8 ± 2.25 nM.

Which Kd does the source give for B22 here?
Its Kd is 56.5 ± 14.5 nM.

With B23 as the binder, how does the Kd read?
Its Kd is 30.5 ± 9 nM.

For B24, which Kd is on record?
The Kd was 10.8 ± 2.05 nM.

Which Kd does the source give for B25 here?
Its Kd is 28.9 ± 2 nM.

B26 was tested. Which Kd did it give?
The Kd was 45 ± 18 nM.

How did the Kd turn out when B27 was run?
The Kd was 16.2 ± 2 nM.

B28 was tested. Which Kd did it give?
Its Kd is 19.4 ± 2.75 nM.
